In article PMC7350285:

Tests used:
BRG1 AT-BD P1456L = BRG1 AT-BD P1456L (human, UniProt P51532 1434-1569, P1456L); assay: BLI
BRG1 AT-BD R1502H = BRG1 AT-BD R1502H (human, UniProt P51532 1434-1569, R1502H); assay: BLI
Chain of BRG1 AT-BD R1502H (P51532 1434-1569 R1502H): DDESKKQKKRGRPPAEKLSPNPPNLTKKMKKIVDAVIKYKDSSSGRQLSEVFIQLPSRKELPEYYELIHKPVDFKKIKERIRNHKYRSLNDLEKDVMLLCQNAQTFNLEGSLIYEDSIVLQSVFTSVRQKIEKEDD

Chain of BRG1 AT-BD P1456L (P51532 1434-1569 P1456L): as the sequence (P51532 1434-1569 R1502H) above, with P23L, H69R counted along it

B1: biotinylated SELEX-DNA (dsDNA)
DNA 1: CCTCAATTAAATCTC
DNA 2: GAGATTTAATTGAGG
For B1, the Kd (BRG1 AT-BD P1456L) was 1200 ± 100 nM and the Kd (BRG1 AT-BD R1502H) was 2400 ± 200 nM.
